Test results as given in US20220193132A1 (NATIONAL RESEARCH COUNCIL OF CANADA, published 2022).

Legend:
[1] = biological target: T1, wild type human EGFR, full length, overexpressed on U87MG cells (human, UniProt P00533 25-1210); assay: flow cytometry dose-response, U87MG EGFR wt cells
T1 construct: also called U87MG-EGFR wt; U87 WT
Procedure: (§1) Prior to analysis, cells were plated such that they were not more than 80% confluent on the day of analysis. Unless otherwise stated, all media are kept are 4° C. and all incubations are performed on wet ice. Cells were washed in PBS, harvested by the addition of cell dissociation buffer (Sigma), centrifuged and resuspended in complete medium at a cell density of 2×10⁶ cells/mL. Fifty μL/well of cells were distributed in a polypropylene v-bottom 96 well plate and serial 1/3 dilutions of purified mAbs starting at 100 nM were added and incubated for 2 hours. […] Cells were washed and re-suspended in medium containing Propidium iodide to exclude dead cells from analysis. Samples were filtered through a 60 μm nylon mesh filter plate (Millipore, Ireland) to remove cell aggregates. Flow cytometry analyses were performed on 2,000 viable single-cells events gated on forward scattering, side scattering parameters and propidium iodide dye exclusion using a BD-LSRFortessa flow cytometer (Becton-Dickinson Biosciences, CA, USA) and a standard filter set using BD FACSDiva™ acquisition software, according to manufacturer's instructions.
(§2) Specific detection of antibody binding was calculated as the mean fluorescent intensity of binding to each primary antibody after background level subtraction of the mean fluorescent intensity of binding of mouse IgG control. The data were analyzed with GraphPad Prism v 6.0 software using one-site specific binding with Hill slope non-linear regression curve fit model to determine Bmax (maximum specific binding) and Kdₐₚₚ (concentration needed to achieve a half-maximum binding at equilibrium) for each mAb tested.

[2] = biological target: T2, EGFRvIII, full length, overexpressed on glioblastoma cells (human, UniProt P00533 298-623); assay: flow cytometry dose-response on U87MG EGFRvIII cells, apparent Kd (n=3)
T2 construct: Cells overexpress full length EGFRvIII (deletion of exons 2-7 of EGFR); Cell line (U87MG or DKMG) is named under assay; also called U87MG-EGFRvIII; U87vIII
Procedure: Prior to analysis, cells were plated such that they were not more than 80% confluent on the day of analysis. Unless otherwise stated, all media are kept are 4° C. and all incubations are performed on wet ice. Cells were washed in PBS, harvested by the addition of cell dissociation buffer (Sigma), centrifuged and resuspended in complete medium at a cell density of 2×10⁶ cells/mL. Fifty μL/well of cells were distributed in a polypropylene v-bottom 96 well plate and serial 1/3 dilutions of purified mAbs starting at 100 nM were added and incubated for 2 hours. […] Cells were washed and re-suspended in medium containing Propidium iodide to exclude dead cells from analysis. Samples were filtered through a 60 μm nylon mesh filter plate (Millipore, Ireland) to remove cell aggregates. […]
as §2

[3] = biological target: T2, EGFRvIII, full length, overexpressed on …; assay: flow cytometry dose-response on DKMG EGFRvIII cells, apparent Kd (n=1)
Procedure: as §1
(§3) These cells were grown in RPMI and 10% fetal bovine serum using standard culturing conditions.

[4] = biological target: T2, EGFRvIII, full length, overexpressed on …; assay: flow cytometry dose-response on DKMG EGFRvIII cells (n=1)
Procedure: as §1, §3

[5] = biological target: T3, EGFRvIII fragment amino acid residues 15 to 37, displayed on yeast (human); assay: yeast surface display, flow cytometry
T3 construct: also called aa 15-37; fragment 15-37
T3 peptide: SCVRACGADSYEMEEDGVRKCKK
Source text: (§4) Assessment of the binding of anti-EGFRvIII mAbs to the fusion proteins expressed on yeast cell surface was done by flow cytometry analysis. Briefly, yeast cells were labeled with both the anti-hEGFRvIII mAb and chicken anti-Myc antibody, the latter being used to monitor the level of expression of the fusion protein. Following a wash step, binding of the primary antibodies is probed by a two-color indirect fluorescence labeling using secondary antibodies specific for mouse and chicken antibodies, respectively.

[6] = biological target: T2, EGFRvIII, full length, overexpressed on …; assay: cell-based or functional assay
[7] = biological target: T4, recombinant human wild type EGFR protein (extracellular domain), native (human, UniProt P00533 25-645); assay: ELISA Exp 1, mAb supernatant
T4 construct: also called wt EGFR; EGFR WT
Procedure: (§5) Pre- and post-immune sera titers of animals were assessed by ELISA on recombinant EGFRvIII protein. Unless otherwise stated, all incubations were performed at room temperature. […] Microplates were washed three times in PBS and blocked for 30 min with PBS containing 1% bovine serum albumin (BSA, Sigma Cat #A7030). Blocking buffer was removed and 25 μl of serial dilutions of sera samples were added. […] After a 1-h incubation, microplates were washed 4 times and 25 μl of p-nitrophenyl phosphate (pNPP) substrate (Sigma-Aldrich Canada Co., Oakville, ON) at 1 mg/ml in carbonate buffer at pH 9.6 was added and further incubated for 30 min.
(§6) Antigens at 1-2 mg/ml were incubated at 95° C. for 5 min in PBS containing DTT at a final concentration of 40 mM. They were then incubated on ice for 5 min and diluted at their final coating concentration for ELISA purpose.
(§7) ELISA was performed as described above (serum titer determination) using 25 μl of mAb supernatant (Exp 1) or purified mAb at 1 μg/ml (Exp 2).

[8] = biological target: T5, recombinant human wild type EGFR protein (extracellular domain), denatured (human, UniProt P00533 25-645); assay: ELISA Exp 1, mAb supernatant
T5 construct: Same protein as m23 after 95 C for 5 min in PBS with 40 mM DTT (denatured, reduced); also called wt EGFR Denatured
Procedure: as §5, §6, §7

[9] = biological target: T6, recombinant human EGFRvIII protein (extracellular domain), native (human, UniProt P00533 298-623); assay: ELISA Exp 1, mAb supernatant
T6 construct: also called hEGFRvIII
Procedure: as §5, §6, §7

[10] = biological target: T7, recombinant human EGFRvIII protein (extracellular domain), denatured (human, UniProt P00533 298-623); assay: ELISA Exp 1, mAb supernatant
T7 construct: Same protein as m21 after 95 C for 5 min in PBS with 40 mM DTT (denatured, reduced); also called EGFRvIII Denatured
Procedure: as §5, §6, §7

[11] = biological target: T2, EGFRvIII, full length, overexpressed on …; assay: cell-based or functional assay; remark: listed apart in the source
[12] = biological target: T2, EGFRvIII, full length, overexpressed on …; assay: flow cytometry dose-response on U87MG-EGFRvIII cells, apparent Kd
Procedure: as §1, §2

[13] = biological target: T8, EGFRvIII amino acid residues 15 to 37 with Asp30 to Ala mutation (human); assay: yeast display flow cytometry, Myc-normalized;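 also: Anti-EGFRvIII monoclonal antibodies tested by flow cytometry on yeast displaying alanine-substituted fragments, two-color indirect fluorescence with anti-Myc signal tracking fusion protein expression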
T8 construct: mutation is already in the entry
T8 peptide: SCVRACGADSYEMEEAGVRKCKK
Source text: as §4
(§8) To further characterize mAb epitopes within the EGFRvIII 15-37 region, an alanine scan of this region was performed, and modified fragments were expressed at the surface of the yeast. […] The resulting peptides were expressed at the surface of the yeast and each anti-EGFRvIII mAbs was tested on the corresponding yeast mutant strain by flow cytometry analysis. Thus, this assay determined the contribution of each amino acid(s) in the monoclonal antibody binding.

[14] = biological target: T9, EGFRvIII amino acid residues 15 to 37 with Gly21 to Ala mutation (human); assay: yeast display flow cytometry, Myc-normalized;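 also: Anti-EGFRvIII monoclonal antibodies tested by flow cytometry on yeast displaying alanine-substituted fragments, two-color indirect fluorescence with anti-Myc signal tracking fusion protein expression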
T9 construct: mutation is already in the entry
T9 peptide: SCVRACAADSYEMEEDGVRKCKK
Source text: as §4, §8

[15] = biological target: T10, EGFRvIII amino acid residues 15 to 37 with Glu29 to Ala mutation (human); assay: yeast display flow cytometry, Myc-normalized;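 also: Anti-EGFRvIII monoclonal antibodies tested by flow cytometry on yeast displaying alanine-substituted fragments, two-color indirect fluorescence with anti-Myc signal tracking fusion protein expression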
T10 construct: mutation is already in the entry
T10 peptide: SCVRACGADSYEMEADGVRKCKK
Source text: as §4, §8

[16] = biological target: T11, EGFRvIII amino acid residues 15 to 37 with Cys20 to Ala mutation (human); assay: yeast display flow cytometry, Myc-normalized;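 also: Anti-EGFRvIII monoclonal antibodies tested by flow cytometry on yeast displaying alanine-substituted fragments, two-color indirect fluorescence with anti-Myc signal tracking fusion protein expression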
T11 construct: mutation is already in the entry
T11 peptide: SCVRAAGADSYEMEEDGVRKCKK
Source text: as §4, §8

[17] = biological target: T12, EGFRvIII amino acid residues 15 to 37 with Tyr25 to Ala mutation (human); assay: yeast display flow cytometry, Myc-normalized
T12 construct: mutation is already in the entry
T12 peptide: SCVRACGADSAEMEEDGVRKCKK
Source text: as §4, §8

[18] = biological target: T13, EGFRvIII amino acid residues 15 to 37 with Asp23 to Ala mutation (human); assay: yeast display flow cytometry, Myc-normalized
T13 construct: mutation is already in the entry
T13 peptide: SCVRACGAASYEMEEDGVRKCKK
Source text: as §4, §8

[19] = biological target: T14, EGFRvIII amino acid residues 15 to 37 with Ser15 to Ala mutation (human); assay: yeast display flow cytometry, Myc-normalized
T14 construct: mutation is already in the entry
T14 peptide: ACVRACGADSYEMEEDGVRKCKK
Source text: as §4, §8

[20] = biological target: T15, EGFRvIII amino acid residues 15 to 37 with Arg18 to Ala mutation (human); assay: yeast display flow cytometry, Myc-normalized
T15 construct: mutation is already in the entry
T15 peptide: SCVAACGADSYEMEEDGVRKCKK
Source text: as §4, §8

[21] = biological target: T16, EGFRvIII amino acid residues 15 to 37 with Ser24 to Ala mutation (human); assay: yeast display flow cytometry, Myc-normalized
T16 construct: mutation is already in the entry
T16 peptide: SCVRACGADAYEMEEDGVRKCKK
Source text: as §4, §8

[22] = biological target: T17, EGFRvIII amino acid residues 15 to 37 with Glu28 to Ala mutation (human); assay: yeast display flow cytometry, Myc-normalized
T17 construct: mutation is already in the entry
T17 peptide: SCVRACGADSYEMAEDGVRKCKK
Source text: as §4, §8

[23] = biological target: T18, EGFRvIII amino acid residues 15 to 37 with Lys37 to Ala mutation (human); assay: yeast display flow cytometry, Myc-normalized
T18 construct: mutation is already in the entry
T18 peptide: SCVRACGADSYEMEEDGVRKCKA
Source text: as §4, §8

[24] = biological target: T19, EGFRvIII amino acid residues 15 to 37 with Met27 to Ala mutation (human); assay: yeast display flow cytometry, Myc-normalized
T19 construct: mutation is already in the entry
T19 sequence (peptide, as listed by the source, change not shown): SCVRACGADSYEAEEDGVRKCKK
Source text: as §4, §8

[25] = biological target: T20, EGFRvIII amino acid residues 15 to 37 with Val17 to Ala mutation (human); assay: yeast display flow cytometry, Myc-normalized
T20 construct: mutation is already in the entry
T20 peptide: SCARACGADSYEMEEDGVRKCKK
Source text: as §4, §8

[26] = biological target: T4, recombinant human wild type EGFR …; assay: ELISA Exp 2, purified mAb 1 ug/ml;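 also: ELISA of purified mAb binding to plate-coated antigen, native or heat/DTT-denatured, with pNPP substrate developed for 30 min and incubations at room temperature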
[27] = biological target: T5, recombinant human wild type EGFR …; assay: ELISA Exp 2, purified mAb 1 ug/ml;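 also: ELISA of purified mAb binding to plate-coated antigen, native or heat/DTT-denatured, with pNPP substrate developed for 30 min and incubations at room temperature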
[28] = biological target: T6, recombinant human EGFRvIII protein …; assay: ELISA Exp 2, purified mAb 1 ug/ml;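 also: ELISA of purified mAb binding to plate-coated antigen, native or heat/DTT-denatured, with pNPP substrate developed for 30 min and incubations at room temperature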
[29] = biological target: T7, recombinant human EGFRvIII protein …; assay: ELISA Exp 2, purified mAb 1 ug/ml;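 also: ELISA of purified mAb binding to plate-coated antigen, native or heat/DTT-denatured, with pNPP substrate developed for 30 min and incubations at room temperature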
[30] = biological target: T21, EGFRvIII amino acid residues 15 to 37 with Cys35 to Ala mutation (human); assay: yeast display flow cytometry, alanine scan
T21 construct: mutation is already in the entry
T21 peptide: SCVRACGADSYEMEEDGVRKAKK
Source text: as §4, §8

[31] = biological target: T22, EGFRvIII amino acid residues 15 to 37 with Lys34 to Ala mutation (human); assay: yeast display flow cytometry, alanine scan
T22 construct: mutation is already in the entry
T22 peptide: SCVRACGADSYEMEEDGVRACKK
Source text: as §4, §8

[32] = biological target: T23, EGFRvIII amino acid residues 15 to 37 with Arg33 to Ala mutation (human); assay: yeast display flow cytometry, alanine scan
T23 construct: mutation is already in the entry
T23 peptide: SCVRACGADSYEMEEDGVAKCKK
Source text: as §4, §8

[33] = biological target: T24, EGFRvIII amino acid residues 15 to 37 with Glu26 to Ala mutation (human); assay: yeast display flow cytometry, alanine scan
T24 construct: mutation is already in the entry
T24 peptide: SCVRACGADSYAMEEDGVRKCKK
Source text: as §4, §8

[34] = biological target: T25, EGFRvIII amino acid residues 15 to 37 with Val32 to Ala mutation (human); assay: yeast display flow cytometry, alanine scan
T25 construct: mutation is already in the entry
T25 peptide: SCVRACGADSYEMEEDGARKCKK
Source text: as §4, §8

[35] = biological target: T26, EGFRvIII amino acid residues 15 to 37 with Lys36 to Ala mutation (human); assay: yeast display flow cytometry, alanine scan
T26 construct: mutation is already in the entry
T26 peptide: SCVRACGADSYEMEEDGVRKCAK
Source text: as §4, §8

B1: hFc-4E11 (antibody, human IgG1, kappa, V domains shown)
VH: DVQLQESGPGLVKPSQSLSLTCTVTGYSITSDYAWNWIRQFPGNKLEWMGYIGYNGRTSYNPSLKSRISITRDTSKNQFFLQLNYVTTEDTATFYCARLGRGFAYWGQGTLVTVSA
VL: DILMTQSPSSMSVSLGDTVSITCHASQGINSNIGWLLQKPGKSFKGLIYHGTNLEDGVPSRFSGSGSGTDYSLTISSLESEDFADYYCVQYAQFPYTFGGGTKLEIKR
notes: Chimeric antibody, mouse variable regions on human IgG1 / human kappa, produced in CHO cells; also called chimeric 4E11
binding result [1]: no binding | Kd [2]: 2.6 nM | Kd [3]: 1.43 nM | Bmax [4]: 12100

B2: F265-9C9 (antibody, V domains shown)
VH: QVQLQQPGAELVKPGASVKLSCKASGYTFTSYWMHWVKQRPGQDLEWIGEIDPSDSYTNYNQKFKGKATLTVDKSSSTAYIQLSSLTSEDSALYYCARFDFAYWGQGTLVTVSA
VL: EIVLTQSPTLMAASPGEKVTITCSVSSSISSSNLHWYQQKSETSPKPWIYDTSNLASGVPIRFSGSGSGTSYSLTISSVEAEDAATYYCQQWSSYPLTFGSGTKLEIK
notes: Mouse hybridoma mAb
binding result [5]: binds | % internalization (pHrodo surrogate assay, vs 225 mAb) [6]: 87% | ELISA absorbance 405 nm [7]: 0.21 A405 | ELISA absorbance 405 nm [8]: 0.064 A405 | ELISA absorbance 405 nm [9]: 1.2 A405 | ELISA absorbance 405 nm [10]: 1.72 A405 | % survival (DM1 secondary-conjugate ADC surrogate assay, vs mouse IgG) [11]: 82% | Kd [12]: > 200 nM | % of binding vs wild-type fragment 15-37 [13]: 22.6% | % of binding vs wild-type fragment 15-37 [14]: 160% | % of binding vs wild-type fragment 15-37 [15]: 138% | % of binding vs wild-type fragment 15-37 [16]: 51.9% | % of binding vs wild-type fragment 15-37 [17]: 152% | % of binding vs wild-type fragment 15-37 [18]: 63.2% | % of binding vs wild-type fragment 15-37 [19]: 115% | % of binding vs wild-type fragment 15-37 [20]: 205% | % of binding vs wild-type fragment 15-37 [21]: 211% | % of binding vs wild-type fragment 15-37 [22]: 87.1% | % of binding vs wild-type fragment 15-37 [23]: 108% | % of binding vs wild-type fragment 15-37 [24]: 159% | % of binding vs wild-type fragment 15-37 [25]: 87.5% | ELISA absorbance 405 nm [26]: 0.038 A405 | ELISA absorbance 405 nm [27]: 0.003 A405 | ELISA absorbance 405 nm [28]: 1.29 A405 | ELISA absorbance 405 nm [29]: 0.503 A405 | binding result [30]: no binding (tested: 0-15% of wild-type binding) | binding result [31]: no binding (tested: 0-15% of wild-type binding) | binding result [32]: no binding (tested: 0-15% of wild-type binding) | binding result [33]: no binding (tested: 0-15% of wild-type binding) | binding result [34]: no binding (tested: 0-15% of wild-type binding) | binding result [35]: no binding (tested: 0-15% of wild-type binding)
